Assay results as given in the supplement of paper PMC10065799, “High-throughput profiling of sequence recognition by tyrosine kinases and SH2 domains using bacterial peptide display” (eLife, 2023).

Tests used:
c-Src SH2 = assay: SH2 binding enrichment of the phosphorylated peptide, bacterial display (enrichment ratio); higher = better substrate or ligand; peptides without Tyr show the background
SHP2-C SH2 = assay: as above
Grb2 SH2 = Grb2 SH2 (UniProt P62993); assay: as above
Fes = Fes (UniProt P07332); assay: phosphorylation enrichment, bacterial display (enrichment ratio); higher = better substrate or ligand; peptides without Tyr show the background
Hck = Hck (UniProt P08631); assay: as above
EPHB2 = EPHB2 (UniProt P29323); assay: as above
AncSZ = assay: as above
Jak2 = Jak2 (UniProt O60674); assay: as above
Fyn = Fyn (UniProt P06241); assay: as above
c-Abl (mouse) = assay: as above
EPHB1 = EPHB1 (UniProt P54762); assay: as above
MERTK = MERTK (UniProt Q12866); assay: as above
c-Src = assay: as above
FGFR1 = FGFR1 (UniProt P11362); assay: as above
Fer (mouse) = assay: as above
FGFR3 = FGFR3 (UniProt P22607); assay: as above
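For SH2 binding enrichment of the phosphorylated peptide, bacterial display in this document: peptide library displayed on the E. coli surface as eCPX fusions, selected cells deep-sequenced, score is each peptide's frequency after selection divided by its frequency in the input.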
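For phosphorylation enrichment, bacterial display in this document: 11-residue human phosphosite peptides and single-mutation variants displayed on the E. coli surface, counted by deep sequencing, each peptide's frequency after selection divided by its frequency in the unselected input library; frequency after pTyr selection over input frequency; kinase dosed for 20-30% of maximal phosphorylation in three min.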

Chain of Fyn (P06241 whole entry, looked up): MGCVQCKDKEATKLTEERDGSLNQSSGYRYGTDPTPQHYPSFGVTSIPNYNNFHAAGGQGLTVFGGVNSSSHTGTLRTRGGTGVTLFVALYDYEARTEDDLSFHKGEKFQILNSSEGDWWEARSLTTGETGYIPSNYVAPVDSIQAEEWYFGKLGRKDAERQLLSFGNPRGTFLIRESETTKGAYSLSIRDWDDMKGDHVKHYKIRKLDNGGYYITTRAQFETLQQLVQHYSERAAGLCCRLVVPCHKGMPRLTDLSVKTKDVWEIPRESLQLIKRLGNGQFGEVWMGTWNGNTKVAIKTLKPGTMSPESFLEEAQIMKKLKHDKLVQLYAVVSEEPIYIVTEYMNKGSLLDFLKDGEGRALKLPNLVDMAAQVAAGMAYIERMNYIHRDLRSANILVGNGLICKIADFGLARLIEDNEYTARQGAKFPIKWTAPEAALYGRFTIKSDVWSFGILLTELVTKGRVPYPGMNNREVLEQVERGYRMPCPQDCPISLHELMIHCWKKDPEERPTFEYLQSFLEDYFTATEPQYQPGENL
Chain of FGFR1 (P11362 whole entry, looked up): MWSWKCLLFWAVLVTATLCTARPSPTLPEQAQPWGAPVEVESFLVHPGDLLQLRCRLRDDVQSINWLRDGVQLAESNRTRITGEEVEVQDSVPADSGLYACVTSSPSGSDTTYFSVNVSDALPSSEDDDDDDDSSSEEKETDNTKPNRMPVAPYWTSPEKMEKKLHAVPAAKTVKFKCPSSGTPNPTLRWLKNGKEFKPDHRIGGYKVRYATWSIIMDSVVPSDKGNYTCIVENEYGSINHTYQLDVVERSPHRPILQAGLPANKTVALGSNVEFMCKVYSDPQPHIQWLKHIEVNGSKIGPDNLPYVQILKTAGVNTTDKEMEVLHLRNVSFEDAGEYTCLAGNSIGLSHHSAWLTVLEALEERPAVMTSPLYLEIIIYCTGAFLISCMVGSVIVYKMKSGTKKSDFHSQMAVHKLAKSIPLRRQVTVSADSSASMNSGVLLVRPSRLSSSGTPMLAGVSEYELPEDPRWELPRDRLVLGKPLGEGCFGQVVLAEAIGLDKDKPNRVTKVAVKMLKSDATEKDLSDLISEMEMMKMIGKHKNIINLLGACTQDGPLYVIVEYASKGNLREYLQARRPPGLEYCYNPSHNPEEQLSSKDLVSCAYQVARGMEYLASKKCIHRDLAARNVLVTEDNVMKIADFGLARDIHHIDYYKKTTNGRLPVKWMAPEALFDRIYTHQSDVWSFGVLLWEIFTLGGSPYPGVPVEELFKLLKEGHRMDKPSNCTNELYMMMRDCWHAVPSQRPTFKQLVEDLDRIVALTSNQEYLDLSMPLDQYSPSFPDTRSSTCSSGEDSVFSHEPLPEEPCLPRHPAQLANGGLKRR
Chain of Fes (P07332 whole entry, looked up): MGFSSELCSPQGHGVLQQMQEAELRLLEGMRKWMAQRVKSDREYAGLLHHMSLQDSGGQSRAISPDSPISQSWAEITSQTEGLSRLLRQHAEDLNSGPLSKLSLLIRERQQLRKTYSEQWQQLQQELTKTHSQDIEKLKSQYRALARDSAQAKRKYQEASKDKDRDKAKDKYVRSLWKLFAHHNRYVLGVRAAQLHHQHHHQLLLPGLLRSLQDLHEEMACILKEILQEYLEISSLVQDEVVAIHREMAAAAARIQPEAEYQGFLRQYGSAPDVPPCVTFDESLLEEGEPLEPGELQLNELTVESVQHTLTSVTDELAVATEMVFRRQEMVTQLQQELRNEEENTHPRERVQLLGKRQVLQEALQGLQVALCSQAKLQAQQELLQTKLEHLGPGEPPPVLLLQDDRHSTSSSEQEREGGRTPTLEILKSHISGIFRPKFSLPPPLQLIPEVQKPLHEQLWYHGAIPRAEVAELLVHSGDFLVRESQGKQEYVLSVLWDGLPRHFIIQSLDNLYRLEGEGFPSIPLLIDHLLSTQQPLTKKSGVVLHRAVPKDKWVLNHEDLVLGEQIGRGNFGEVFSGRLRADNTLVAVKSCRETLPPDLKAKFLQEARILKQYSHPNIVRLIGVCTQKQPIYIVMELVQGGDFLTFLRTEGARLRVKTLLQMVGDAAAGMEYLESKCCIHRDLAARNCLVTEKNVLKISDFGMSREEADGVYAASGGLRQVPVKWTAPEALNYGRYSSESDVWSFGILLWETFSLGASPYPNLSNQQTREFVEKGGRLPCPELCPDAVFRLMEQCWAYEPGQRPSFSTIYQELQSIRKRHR
Chain of FGFR3 (P22607 whole entry, looked up, the tested form may be a part): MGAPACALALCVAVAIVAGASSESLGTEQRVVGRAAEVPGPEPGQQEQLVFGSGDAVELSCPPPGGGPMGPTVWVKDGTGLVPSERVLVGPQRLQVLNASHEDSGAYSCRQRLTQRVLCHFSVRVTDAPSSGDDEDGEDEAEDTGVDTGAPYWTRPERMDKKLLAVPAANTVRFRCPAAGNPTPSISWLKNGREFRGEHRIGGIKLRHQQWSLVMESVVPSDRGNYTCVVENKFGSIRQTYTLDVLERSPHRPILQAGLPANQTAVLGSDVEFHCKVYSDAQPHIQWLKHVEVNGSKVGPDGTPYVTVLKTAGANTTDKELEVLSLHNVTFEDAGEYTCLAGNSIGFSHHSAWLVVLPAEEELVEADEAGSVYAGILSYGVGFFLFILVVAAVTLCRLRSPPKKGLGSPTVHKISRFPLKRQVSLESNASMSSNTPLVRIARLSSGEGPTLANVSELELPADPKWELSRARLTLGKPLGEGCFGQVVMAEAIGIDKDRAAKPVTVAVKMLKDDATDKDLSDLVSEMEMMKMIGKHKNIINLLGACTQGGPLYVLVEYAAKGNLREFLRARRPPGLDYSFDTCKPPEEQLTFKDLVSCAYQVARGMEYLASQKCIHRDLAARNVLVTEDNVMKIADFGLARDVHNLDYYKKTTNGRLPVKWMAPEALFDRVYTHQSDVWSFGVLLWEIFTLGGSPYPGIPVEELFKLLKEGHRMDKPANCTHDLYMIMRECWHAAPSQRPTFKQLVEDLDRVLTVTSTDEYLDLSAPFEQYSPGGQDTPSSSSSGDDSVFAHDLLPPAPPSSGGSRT
Chain of Jak2 (O60674 whole entry, looked up): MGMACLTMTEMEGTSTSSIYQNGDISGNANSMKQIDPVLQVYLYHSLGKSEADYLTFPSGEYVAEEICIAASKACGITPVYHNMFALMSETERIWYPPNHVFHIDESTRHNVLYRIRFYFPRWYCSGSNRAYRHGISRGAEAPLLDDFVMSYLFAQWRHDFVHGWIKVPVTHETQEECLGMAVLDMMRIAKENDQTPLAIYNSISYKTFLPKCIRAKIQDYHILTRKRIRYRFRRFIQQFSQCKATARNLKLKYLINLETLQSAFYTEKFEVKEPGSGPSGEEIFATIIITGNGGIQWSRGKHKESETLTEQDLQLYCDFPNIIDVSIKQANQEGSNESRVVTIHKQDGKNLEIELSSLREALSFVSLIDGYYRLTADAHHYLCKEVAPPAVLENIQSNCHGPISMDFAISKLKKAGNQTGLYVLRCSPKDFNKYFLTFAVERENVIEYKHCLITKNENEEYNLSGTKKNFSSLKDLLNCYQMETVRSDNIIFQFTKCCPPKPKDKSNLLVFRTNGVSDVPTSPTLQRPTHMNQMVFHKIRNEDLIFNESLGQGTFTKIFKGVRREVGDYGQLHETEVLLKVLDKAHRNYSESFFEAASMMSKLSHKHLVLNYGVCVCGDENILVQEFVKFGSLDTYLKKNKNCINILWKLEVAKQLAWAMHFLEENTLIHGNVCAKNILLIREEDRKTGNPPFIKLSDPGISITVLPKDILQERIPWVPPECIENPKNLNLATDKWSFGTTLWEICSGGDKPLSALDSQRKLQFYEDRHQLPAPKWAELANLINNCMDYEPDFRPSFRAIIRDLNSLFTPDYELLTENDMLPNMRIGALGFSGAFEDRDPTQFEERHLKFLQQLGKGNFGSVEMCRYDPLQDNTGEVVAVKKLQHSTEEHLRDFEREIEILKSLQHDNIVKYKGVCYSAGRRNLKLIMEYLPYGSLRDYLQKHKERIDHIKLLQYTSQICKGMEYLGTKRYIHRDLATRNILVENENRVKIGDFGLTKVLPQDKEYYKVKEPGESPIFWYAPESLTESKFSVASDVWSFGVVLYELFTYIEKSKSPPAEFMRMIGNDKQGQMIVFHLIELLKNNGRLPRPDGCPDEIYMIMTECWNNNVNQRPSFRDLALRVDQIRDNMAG
Chain of Grb2 SH2 (P62993 whole entry, looked up): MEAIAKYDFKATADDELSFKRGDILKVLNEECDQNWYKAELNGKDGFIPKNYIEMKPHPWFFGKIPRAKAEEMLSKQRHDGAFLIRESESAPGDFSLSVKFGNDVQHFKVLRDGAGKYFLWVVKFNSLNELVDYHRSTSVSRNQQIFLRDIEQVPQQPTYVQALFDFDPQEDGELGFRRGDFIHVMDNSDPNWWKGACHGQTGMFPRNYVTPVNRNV
Chain of Hck (P08631 whole entry, looked up): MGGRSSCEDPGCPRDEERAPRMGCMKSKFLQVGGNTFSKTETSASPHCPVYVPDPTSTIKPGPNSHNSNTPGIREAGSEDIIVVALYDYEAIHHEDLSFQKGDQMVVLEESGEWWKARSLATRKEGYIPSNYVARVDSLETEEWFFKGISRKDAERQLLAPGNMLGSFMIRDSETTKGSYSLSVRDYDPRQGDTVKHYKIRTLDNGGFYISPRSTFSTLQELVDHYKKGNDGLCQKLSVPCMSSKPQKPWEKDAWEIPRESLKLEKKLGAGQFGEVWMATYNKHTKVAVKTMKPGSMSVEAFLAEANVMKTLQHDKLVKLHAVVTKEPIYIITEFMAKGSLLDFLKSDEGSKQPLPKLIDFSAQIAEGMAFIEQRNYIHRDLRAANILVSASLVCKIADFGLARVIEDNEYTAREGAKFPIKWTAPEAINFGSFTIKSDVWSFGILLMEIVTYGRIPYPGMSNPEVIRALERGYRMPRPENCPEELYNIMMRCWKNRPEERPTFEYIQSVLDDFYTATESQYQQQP

Sequence	SH2 binding enrichment (c-Src SH2)	SH2 binding enrichment (SHP2-C SH2)	SH2 binding enrichment (Grb2 SH2)	phosphorylation enrichment (Fes)	phosphorylation enrichment (Hck)	phosphorylation enrichment (EPHB2)	phosphorylation enrichment (AncSZ)	phosphorylation enrichment (Jak2)	phosphorylation enrichment (Fyn)	phosphorylation enrichment (c-Abl (mouse))	phosphorylation enrichment (EPHB1)	phosphorylation enrichment (MERTK)	phosphorylation enrichment (c-Src)	phosphorylation enrichment (FGFR1)	phosphorylation enrichment (Fer (mouse))	phosphorylation enrichment (FGFR3)
PVFQVYPLLNC [GATA1_Y78]	0.49	0.783	0.742	1.87	0.654	0.64	1.7	1.72	0.652	1.13	0.775	0.927	0.697	1.27	0.758	1.43
PVPKTYDMLKA [PKP2_Y108]	1.39	0.695	0.806	1.02	1.46	0.541	1.07	1.92	0.764	1.01	1.2	0.648	0.861	0.766	0.577	0.707
PVQAVYQKVVA [HBB_Y131_A130V]	1.3	1.01	0.913	0.532	1.75	0.578	0.373	0.289	0.677	0.203	0.727	1.47	1.61	0.421	1.14	0.617
PVQDAYQKVVA [HBB_Y131_A129D]	1.03	0.956	0.983	0.453	0.353	0.308	0.526	0.425	0.366	0.421	0.445	0.379	0.386	0.397	0.493	0.429
PYVYYYSYLLK [PTEN_Y178_R173P]	0.669	0.598	0.873	1.87	3.46	1.92	1.99	4.21	1.88	3.68	3.56	5.9	3.14	6.02	1.1	6.37
QDKDLYPCPGT [RLF_Y671_R668K]	0.658	0.801	0.832	1.18	0.625	0.857	1.36	0.996	0.652	0.726	0.701	0.613	0.483	0.744	0.562	0.785
QEMMEYRRQIQ [DES_Y324_H326R]	0.401	0.734	0.737	0.92	0.355	0.601	0.878	1.18	0.491	0.428	0.523	0.455	0.563	0.424	0.644	0.607
QGCSIYKDFFR [PLA2G2D_Y82_YF]	0.487	0.724	0.921	1.74	1.86	1.18	1.44	2.25	3.19	2.14	1.11	0.998	6.61	0.721	0.774	1.28
QGIIIYKAAYF [SLC25A4_Y187_R188K]	0.391	0.942	0.708	2.36	0.647	1.04	1.66	2.63	0.53	1.85	0.94	1.04	1.06	0.948	1.01	1.2
QGIYGYHHHMQ [UFSP2_Y287_Y290H]	1.07	1.07	1.09	0.923	9.07	4.59	0.932	0.598	9.98	4.62	2.34	9.93	7.86	0.613	10.9	0.653
QISQDYGVLLE [PRDX3_Y172_R170Q]	0.516	0.482	0.52	1.69	0.743	1.21	1.37	1.32	0.828	1.18	0.876	0.603	0.981	0.851	0.673	0.792
QISRDYGVLLE [PRDX3_Y172]	0.576	0.683	0.845	1.04	0.751	0.731	0.922	0.862	0.624	0.635	0.617	0.64	0.679	0.523	0.637	0.69
QITQVYGFYHE [PPP2CA_Y127_D131H]	1.05	1.04	1.04	1.07	7.96	0.877	0.938	1.21	10.1	0.67	0.66	3.47	8.14	0.614	0.872	0.753
QKMFDYLKEKK [RYR2_Y3780_L3778F]	0.363	0.738	0.743	0.958	0.471	0.438	0.797	0.805	0.445	0.763	0.558	0.403	0.471	0.459	0.574	0.595
QLLIKYPPEEV [ZZZ3_Y670]	0.626	1	0.848	1.62	0.566	0.816	1.25	1.39	0.7	1.25	0.898	0.858	0.604	0.811	0.473	0.95
QLYGAYLRIHA [BSCL2_Y213]	1.13	1.35	1.27	1.68	4.32	1.3	1.95	1.2	7.21	0.915	1	0.905	3.58	1.02	0.536	1.12
